From US6689868 (Dana-Farber, dated 2004)

B1: LexA-CD2 tail truncation construct M (other, UniProt P0A7C2 1-202, looked up)
chain: MKALTARQQEVFDLIRDHISQTGMPPTRAEIAQRLGFRSPNAAEEHLKALARKGVIEIVSGASRGIRLLQEEEEGLPLVGRVAAGEPLLAQQHIEGHYQVDPSLFKPNADFLLRVSGMSMKDIGIMDGDLLAVHKTQDVRNGQVVVARIDDEVTVKRLKKQGNKVELLPENSEFKPIVVDLRQQSFTIEGLAVGVIRNGDWLNDEELETRAHRVATEERGRKPHQIPASTPQNPATSQHPPPPPGHRSQAPSHRPPPPGHRVQHQPQKR
B2: LexA-CD2 cytoplasmic tail fusion (CD2 bait, aa 221-327) in pEG202 (other, UniProt P0A7C2 1-202, looked up)
chain: MKALTARQQEVFDLIRDHISQTGMPPTRAEIAQRLGFRSPNAAEEHLKALARKGVIEIVSGASRGIRLLQEEEEGLPLVGRVAAGEPLLAQQHIEGHYQVDPSLFKPNADFLLRVSGMSMKDIGIMDGDLLAVHKTQDVRNGQVVVARIDDEVTVKRLKKQGNKVELLPENSEFKPIVVDLRQQSFTIEGLAVGVIRNGDWLNDEELETRAHRVATEERGRKPHQIPASTPQNPATSQHPPPPPGHRSQAPSHRPPPPGHRVQHQPQKRPPAPSGTQVHQQKGPPLPRPRVQPKPPHGAAENSLSPSSN
notes: The CD2 aa numbers (tail ends at 327) appear to count on mature CD2, not on the precursor; also called CD2 tail; pEG202/CD2
B3: human CD58 (on transfected CHO cells) (ligand, UniProt P19256 29-250, looked up)
chain: FSQQIYGVVYGNVTFHVPSNVPLKEVLWKKQKDKVAELENSEFRAFSSFKNRVYLDTVSGSLTIYNLTSSDEDEYEMESPNITDTMKFFLYVLESLPSPTLTCALTNGSIEVQCMIPEHYNSHRGLIMYSWDCPMEQCKRNSTSIYFKMENDLPQKIQCTLSNPLFNTTSSIILTTCIPSSGHSRHRYALIPIPLAVITTCIVLYMNGILKCDRKPDRTNSN
notes: whole, on cells; also called CD58 ligand; human CD58-transfected CHO cells
B4: B42-SH334 (SH3 domain of CD2BP1 plus 34 N-terminal amino acids) (other, not shown: large carriers)
chain: ASAASTETLTPTPERNEGVYTAIAVQEIQGNPASPAQEYRALYDYTAQNPDELDLSAGDILEVILEGEDGWWTVERNGQRGFVPGSYLEKL
B5: LexA-CD2 tail truncation construct N (other, UniProt P0A7C2 1-202, looked up)
chain: MKALTARQQEVFDLIRDHISQTGMPPTRAEIAQRLGFRSPNAAEEHLKALARKGVIEIVSGASRGIRLLQEEEEGLPLVGRVAAGEPLLAQQHIEGHYQVDPSLFKPNADFLLRVSGMSMKDIGIMDGDLLAVHKTQDVRNGQVVVARIDDEVTVKRLKKQGNKVELLPENSEFKPIVVDLRQQSFTIEGLAVGVIRNGDWLNDEELETRAHRVATEERGRKPHQIPASTPQNPATSQHPPPPPGHRSQAPS

Tests used:
[1] = target: T1, B42-CD2BP1L fusion (CD2BP1L in pJG4-5) (human, UniProt O43586 1-416); test: yeast two-hybrid, lacZ induction
T1 sequence: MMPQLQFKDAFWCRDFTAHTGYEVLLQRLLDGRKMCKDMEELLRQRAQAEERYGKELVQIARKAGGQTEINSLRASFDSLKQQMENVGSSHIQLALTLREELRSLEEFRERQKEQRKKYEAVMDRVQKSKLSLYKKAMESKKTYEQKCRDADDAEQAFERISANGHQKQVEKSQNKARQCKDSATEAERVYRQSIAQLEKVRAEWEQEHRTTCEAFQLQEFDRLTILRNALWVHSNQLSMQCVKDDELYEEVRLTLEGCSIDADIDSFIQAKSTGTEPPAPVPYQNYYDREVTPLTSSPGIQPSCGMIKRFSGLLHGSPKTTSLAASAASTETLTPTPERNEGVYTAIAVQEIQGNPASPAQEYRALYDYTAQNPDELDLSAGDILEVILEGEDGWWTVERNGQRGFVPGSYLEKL
Description: (§1) These tail variants were tested in the yeast two-hybrid system for their interaction with CD2BP1L or CD2BP1S as well as CD2BP1 truncations. In FIG. 7, open bars represent the region of CD2BP1 sequence with homology to yeast cdc15 protein aa 116–277; solid bars represent PEST rich regions in the CD2BP1 sequences; and hatched bars represent the SH3 domain in the CD2BP1 sequences. CD2BP1S/ΔSH3 represents CD2BP1 lacking the SH3 domain. $SH334$ includes the entire SH3 domain of CD2BP1 and 34 N-terminal amino acids. $SH366$ includes the SH3 domain of CD2BP1S and 66 N-terminal amino acids. $SH383$ includes the SH3 domain of CD2BP1L and 83 N-terminal amino acids of CD2BP1L. SH^3GGGGS includes the entire SH3 domain of CD2BP1 and an artificial N-terminal linker consisting of the residues shown.
(§2) The strength of the interaction between the CD2 variants and the CD2BP1 constructs was determined by lacZ induction.

[2] = target: T2, B42-CD2BP1S/ΔSH3 (CD2BP1S truncation construct lacking the terminal SH3 domain) (human, UniProt O43586 1-359); test: yeast two-hybrid, lacZ induction
T2 sequence: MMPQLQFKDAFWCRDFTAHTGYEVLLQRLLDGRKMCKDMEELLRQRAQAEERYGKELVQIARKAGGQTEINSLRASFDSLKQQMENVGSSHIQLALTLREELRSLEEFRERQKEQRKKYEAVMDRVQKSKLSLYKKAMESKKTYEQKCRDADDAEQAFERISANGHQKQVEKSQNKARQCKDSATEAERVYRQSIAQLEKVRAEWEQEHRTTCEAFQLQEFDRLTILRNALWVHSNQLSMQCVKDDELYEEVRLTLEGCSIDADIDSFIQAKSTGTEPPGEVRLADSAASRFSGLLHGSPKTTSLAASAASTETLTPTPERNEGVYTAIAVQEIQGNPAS
Description: as §1, §2

[3] = target: T3, B42-CD2BP1S fusion (CD2BP1S in pJG4-5) (human, UniProt O43586 1-416); test: yeast two-hybrid, lacZ induction
T3 construct: also called clone #48; CD2BP1S/pJG4-5
T3 sequence: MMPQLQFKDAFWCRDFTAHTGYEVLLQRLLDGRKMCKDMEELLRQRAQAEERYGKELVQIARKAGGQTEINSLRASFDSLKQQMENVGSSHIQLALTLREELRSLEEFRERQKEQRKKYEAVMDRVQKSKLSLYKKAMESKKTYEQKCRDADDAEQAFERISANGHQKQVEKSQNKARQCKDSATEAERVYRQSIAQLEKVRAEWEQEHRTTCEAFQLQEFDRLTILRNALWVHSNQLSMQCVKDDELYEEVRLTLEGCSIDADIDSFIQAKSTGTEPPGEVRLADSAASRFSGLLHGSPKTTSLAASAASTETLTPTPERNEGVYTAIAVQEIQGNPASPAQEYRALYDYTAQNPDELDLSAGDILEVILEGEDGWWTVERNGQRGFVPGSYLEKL
Description: as §1, §2

[4] = target: T3, B42-CD2BP1S fusion (CD2BP1S in pJG4-5); test: yeast two-hybrid (LexA-CD2 tail variant / B42-CD2BP1 construct), lacZ induction
Description: as §1, §2

[5] = target: T4, human CD2 (wild-type, full length) (human, UniProt P06729 25-351); test: cell-cell conjugates of activated human T cells with CD58-transfected CHO cells, immunofluorescence
T4 construct: whole, on cells; In pull-downs and immunoprecipitations it stood in Triton X-100 cell lysates; in staining and rosetting on the cell surface; also called wtCD2; hCD2wt (W33)
T4 sequence (looked up): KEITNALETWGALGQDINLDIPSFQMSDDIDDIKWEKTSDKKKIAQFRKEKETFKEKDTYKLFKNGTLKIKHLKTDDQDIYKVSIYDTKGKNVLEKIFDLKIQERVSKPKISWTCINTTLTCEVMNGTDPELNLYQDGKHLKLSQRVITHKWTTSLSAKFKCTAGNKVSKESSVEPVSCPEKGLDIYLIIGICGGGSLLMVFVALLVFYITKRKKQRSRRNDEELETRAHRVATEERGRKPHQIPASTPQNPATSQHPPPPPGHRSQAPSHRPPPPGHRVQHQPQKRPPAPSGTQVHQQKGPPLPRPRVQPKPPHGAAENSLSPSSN
Description: For image analysis of the CD2BP1 association with CD2, CD2 molecules on the activated T cell surface were induced to cluster by either a pair of anti-CD2 antibodies (anti-T11_2 plus anti-T11_3) or by CD58 ligand directed CD2 relocalization. For antibody crosslinking, activated T cells were incubated with anti-T11_2 mAb (5 μg/ml) and direct Texas red labeled anti-T11_3 mAb (1:50) in FACS buffer at 4° C. for 30 min, followed by two washes with FACS buffer and fixation by incubation in 2% paraformaldehyde/PBS. The cells were then permeabilized and stained with directly FITC-labeled anti-CD2BP1 mAb, followed by fluoroimaging analysis as described above. For ligand induced surface CD2 relocalization, activated T cells were incubated with CD58 transfected CHO cells prebound to coverslips to induce cellular conjugate formation as described previously (Li et al., 1996). After washing off the non-conjugated T cells and fixation in 1% parafornaldehyde, the conjugates were stained with anti-T11_3 antibody (1:50) at 4° C. for 30 min, followed by washing, permeabilization and staining with anti-CD2BP1 antibody as described above. The stained conjugates on the coverslips were then subject to fluoroimaging analysis. […]

[6] = target: B1; test: yeast two-hybrid, lacZ induction
Description: as §1, §2

[7] = target: B5; test: yeast two-hybrid, lacZ induction
Description: as §1, §2

| Binder | binding result [1] | binding result [2] | binding result [3] | further results |
| --- | --- | --- | --- | --- |
| B1 | no binding | no binding | no binding | – |
| B2 | binds | no binding | – | binding result [4]: binds |
| B3 | – | – | – | binding result [5]: binds |
| B4 | – | – | – | binding result [6]: no binding; binding result [7]: no binding |
| B5 | no binding | no binding | no binding | – |
